From the supplement of paper PMC10567573
± gives the standard deviation.

Test: protein stability index of a GFP-peptide fusion (GPS, HEK-293T) (PSI 1-6); higher = more stable
[1] = treatment: DMSO, c terminus: a fixed tail appended
[2] = treatment: MLN4924 1 uM, 8 h, c terminus: a fixed tail appended
[3] = treatment: DMSO, c terminus: native
[4] = treatment: MLN4924 1 uM, 8 h, c terminus: native
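Note: 24-mer peptide tiles fused after GFP, lentivirally expressed, FACS-sorted into six equal bins by GFP/DsRed ratio, decoded by Illumina sequencing, PSI is the read-weighted mean bin number.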

| Sequence | protein stability index [1] | protein stability index [2] | protein stability index [3] | protein stability index [4] |
| --- | --- | --- | --- | --- |
| EDSKRWSKMDQLAKELTAEKRLEG [CHGA] | 4.97 ± 0.33 | 5.11 ± 0.26 |  |  |
| MQAQASIEGAPEVTMSSLFKHILR [SLC25A25] | 2.36 ± 0.32 | 2.14 ± 0.13 |  |  |
| LEASNYQMMPYMQPVMQSDRTAIR [KLHL13] | 3.9 ± 0.38 | 4.17 ± 0.25 |  |  |
| TSTFEATSEGTLELQQRNPKAERL [ZNF232] | 5.2 ± 0.2 | 5.42 ± 0.14 |  |  |
| GGANDRWVRSVSFSHDGLHVASLA [WSB1] | 3.08 ± 0.3 | 3.16 ± 0.42 |  |  |
| SQLDSGVSQAVEGPEELSRSSSES [RIPK4] | 5.5 ± 0.087 | 5.54 ± 0.26 |  |  |
| EDITKGTQSLPTASASKFPSSGPV [AUP1] | 5.19 ± 0.19 | 5.08 ± 0.1 |  |  |
| DSMEGKRSPYAGLQLGAAKKPPVT [TRIM29] | 4.58 ± 0.35 | 4.52 ± 0.18 |  |  |
| ERPPPPPSDDLTLLESSSSYKNLT [MCOLN1] | 5 ± 0.21 | 4.93 ± 0.21 |  |  |
| RNLEDIHMSLEKDIAAMTNSLFID [TEKT4] | 3.29 ± 0.33 | 3.33 ± 0.27 |  |  |
| AAHAVVLCALPVHVAVEHQLPPAS [SOAT2] | 2.16 ± 0.32 | 2.52 ± 0.39 |  |  |
| TVDGLHFNSTYNARVKAFNKTGVS [TRIM9] | 3.17 ± 0.19 | 3.46 ± 0.086 |  |  |
| PQEAVLQQLHQLPRGRLDLATQSL [LRRC45] | 3.75 ± 0.15 | 3.74 ± 0.21 |  |  |
| SSYVASIVDGGESRSEKGDSSRY [RBMY1A1] |  |  | 4.35 ± 0.28 | 4.27 ± 0.35 |
| CFVKDNPQKSYFIRLYGLQAGRLL [WAS] | 2.49 ± 0.58 | 2.22 ± 0.45 |  |  |
| PEKKSDQPMCEEHEEERINIYCLN [TRIM55] | 4.79 ± 0.12 | 4.77 ± 0.35 |  |  |
| CQGQPQGKAVVSHSKGHKSSRQEK [ELOA2] | 5.38 ± 0.22 | 5.37 ± 0.1 |  |  |
| ASLGLTQTQVKIWFQNKRSKFKKL [DLX1] | 2.37 ± 0.19 | 2.61 ± 0.47 |  |  |
| MADGNEDLRADDLPGPAFESYESM [KLHDC2] | 5.41 ± 0.23 | 5.26 ± 0.26 |  |  |
| VKNSNRYDVEMTDELVGLPFSSHT [FBXO34] | 3.8 ± 0.25 | 4 ± 0.12 |  |  |
| QWEYPYLLSILPSLLGLLSFPRNN [JAGN1] | 2.85 ± 0.25 | 2.94 ± 0.35 |  |  |
| RDQGSSALSGVGGIRLPNGKLKCD [IKZF1] | 4.66 ± 0.33 | 4.68 ± 0.32 |  |  |
| ELQLEAANETYENNFDNLDFDLDL [ATF6] | 4.76 ± 0.26 | 5.08 ± 0.11 |  |  |

| Sequence | protein stability index [1] | protein stability index [2] | protein stability index [3] | protein stability index [4] |
| --- | --- | --- | --- | --- |
| VEVMDETNCQKVLNMWCCCFFKRR [CSNK1G3] | 3.21 ± 0.38 | 3.15 ± 0.39 |  |  |
| LASLQDGAAESPYGHPAGIDYKTT [RAB40B] | 4.4 ± 0.31 | 4.39 ± 0.15 |  |  |
| ENARSGAEAEPEDQDEGEWGLDQE [ZBED1] | 5.62 ± 0.15 | 5.56 ± 0.28 |  |  |
| YFITLGTDLAQQQGGGNGQQQQAM [KCNA4] | 3.04 ± 0.18 | 2.95 ± 0.67 |  |  |
| SWAWRGPGVLKVLWLTASQPCSIV [LPCAT4] | 2.74 ± 1.1 | 2.52 ± 0.84 |  |  |
| RLNLTNTKQNFFSQTPILQALQHV [INTS3] | 2.23 ± 0.092 | 2.5 ± 0.17 |  |  |
| EKKDDENIPMETEETHLEETTESQ [SMARCE1] | 5.58 ± 0.43 | 5.39 ± 0.57 |  |  |
| VPAGEEEGELGEYRQKLLMFLEIS [VPS39] | 3.39 ± 0.16 | 3.68 ± 0.22 |  |  |
| KQDVLGPSTTPPAHSSSNTIRSGI [SASS6] | 4.66 ± 0.34 | 4.63 ± 0.22 |  |  |
| ESQLPEEWENNRESLIVFMEQVHR [CPXM2] | 3.79 ± 0.33 | 3.82 ± 0.49 |  |  |
| YIKTPLFNPEVAKYLKVPQDPLKF [IQUB] | 2.42 ± 0.66 | 2.57 ± 0.36 |  |  |
| QLQSMPSRELASMNLDIVDLLKKA [RHOBTB3] | 3.46 ± 0.35 | 3.79 ± 0.47 |  |  |
| RAACFDGHLEIVKYLVEHKADLEV [FEM1C] | 2.59 ± 0.31 | 2.66 ± 0.58 |  |  |
| YREESDSLGQDLRRLRQELLKTEA [DAPK3] | 3.85 ± 0.68 | 3.83 ± 0.31 |  |  |
| KQDSYEQGDSSQQSLKGHLRNNFQ [ZC2HC1C] | 4.69 ± 0.24 | 4.84 ± 0.11 |  |  |
| TGGLLPIKRTIRVLDVNNQSFREQ [NET1] | 2.92 ± 0.13 | 3.03 ± 0.24 |  |  |
| DVDITLSSEAFHNYMNAAMVHINR [RTN3] | 2.18 ± 0.087 | 2.32 ± 0.25 |  |  |
| EIFAIDLRCGNQGKGWKATRLFHD [DCAF4] | 2.24 ± 0.44 | 2.12 ± 0.22 |  |  |
| ATVPSNMMSVNGQAKTHTDSSEKE [ACBD3] | 5.35 ± 0.23 | 5.45 ± 0.19 |  |  |
| MEMYNVIMTVKEDQFSALGLDPCL [SLC6A17] | 2.45 ± 0.62 | 2.26 ± 0.15 |  |  |
| PLAVEEDASSSTSTSSSFPSSFPS [MAGEA10] | 5.31 ± 0.23 | 5.41 ± 0.12 |  |  |
| VSAATQLRHFFLVEDLVDSLKLAL [RTN2] | 2.56 ± 0.72 | 2.49 ± 0.47 |  |  |
| PSLGDSLESIPSLSQSPEPGRRGD [RTN2] | 5.32 ± 0.45 | 5.48 ± 0.12 |  |  |

| Sequence | protein stability index [1] | protein stability index [2] | protein stability index [3] | protein stability index [4] |
| --- | --- | --- | --- | --- |
| TSAITASRSESPPPLSDPKQAKVV [BRD3] | 5.24 ± 0.22 | 5.21 ± 0.077 |  |  |
| PLHHQTQRFRLDNLLNMAYGVKSP [ELAVL3] | 2.5 ± 0.34 | 2.63 ± 0.27 |  |  |
| RNLHSHYHEAPMTRKHYQVTGYGI [POMT2] | 2.35 ± 0.15 | 2.46 ± 0.23 |  |  |
| EALLKLLAGLTRPDVRPPLGRGLV [SEPHS2] | 2.22 ± 0.45 | 2.32 ± 0.24 |  |  |
| DHVHILDTETFTWSQPITTGKAPS [KLHDC2] | 3.82 ± 0.3 | 3.84 ± 0.4 |  |  |
| QRGRVISLWERLEFVNGWYILLVT [MCOLN1] | 2.79 ± 0.68 | 2.67 ± 0.65 |  |  |
| PSGFLQISDALIRRVHLTEDQWGK [TRIM9] | 2.84 ± 0.25 | 2.59 ± 0.24 |  |  |
| DRLASNVAKRKSSMPQKFLGDKGL [IKZF1] | 3.95 ± 0.11 | 4.05 ± 0.17 |  |  |
| EKIWRPNRVFSLQDLCCRAIVSCT [RAB40C] | 2.76 ± 0.19 | 2.88 ± 0.14 |  |  |
| RAGSQVVATTARHSAAYRADPLRV [FUNDC2] | 3.59 ± 0.22 | 3.78 ± 0.17 |  |  |
| VLMKGQHLHLETFKAVLDGLDVLL [PRAME] | 2.26 ± 0.38 | 2.17 ± 0.1 |  |  |
| GASSLPTTMNYPLWSQSYEDSSNQ [MAGEA3] | 4.42 ± 0.11 | 4.57 ± 0.15 |  |  |
| PTKDRLEGLLAFKEKRPPRYKGE [AUH] |  |  | 2.11 ± 0.31 | 4.4 ± 0.1 |
| MGVNAVHWFRKGLRLHDNPALKEC [CRY1] | 2.53 ± 0.23 | 2.54 ± 0.31 |  |  |
| EDPFYWVSPGVLVLLAVLPVLLLQ [MOG] | 2.52 ± 0.41 | 2.38 ± 0.69 |  |  |
| FPKINHGILYDEEKYKPFSQVPTG [CFHR2] | 2.4 ± 0.28 | 3.36 ± 0.34 |  |  |
| GGGLLKYSNLLVRDFRPTDQEEIK [TENT5C] | 3.79 ± 0.32 | 3.75 ± 0.6 |  |  |
| VCAICQINLEGKTFYSKKDRPLCK [PDLIM7] | 2.1 ± 0.44 | 2.42 ± 0.5 |  |  |
| ERGSMKTHFNTAQGFRTVLELVIN [OAS1] | 2.13 ± 0.43 | 2.5 ± 0.56 |  |  |
| YIVAGSARQHALYIWEKSIGNLVK [RBBP5] | 2.22 ± 0.25 | 2.14 ± 0.47 |  |  |
| KIAQNLDFVNLMAYDFHGSWEKVT [CHIT1] | 2.42 ± 0.35 | 2.18 ± 0.39 |  |  |
| ESFYESTSPECASPQFEGPLSPPP [NEUROD6] | 4.92 ± 0.19 | 4.94 ± 0.22 |  |  |
| ILTEETEVKGTLEGDVCGVEPPGP [PBXIP1] | 5.14 ± 0.39 | 5.42 ± 0.24 |  |  |

| Sequence | protein stability index [1] | protein stability index [2] | protein stability index [3] | protein stability index [4] |
| --- | --- | --- | --- | --- |
| SASAKRVWNMTATRPKKMGSQLPK [FATE1] | 3.76 ± 0.27 | 3.79 ± 0.18 |  |  |
| LGSPQHSPSTRGSPNRSLPSPGVL [ATF4] | 4.45 ± 0.23 | 4.45 ± 0.22 |  |  |
| LDVFGRGDNISDVSKFLEDDKWME [LUC7L3] | 4.72 ± 0.27 | 4.37 ± 0.14 |  |  |
| EGVKRYEQEHAAIQDKLFQVAKRE [CHCHD6] | 4.84 ± 0.32 | 4.78 ± 0.24 |  |  |
| FADGVLSGEELHELFHTIDTHNTN [NECAB1] | 3.12 ± 0.38 | 3.68 ± 0.21 |  |  |
| AAWGARVFSFGKHYWELDVDNSCD [TRIM43] | 2.25 ± 0.44 | 2.28 ± 0.3 |  |  |
| QTLQALNFCHIHNCIHRDIKPENI [CDKL4] | 2.47 ± 0.28 | 2.34 ± 0.26 |  |  |
| IASFIRGPNPSKLIQQFLTLRPDQ [CDS2] | 2.24 ± 0.17 | 2.33 ± 0.22 |  |  |
| SYTIITPLFNPMIYSLRNKEFKSA [OR10K2] | 2.74 ± 0.65 | 2.38 ± 0.34 |  |  |
| TPEELEEEIPVVICAAAGRMGATM [GLT8D2] | 4.25 ± 0.26 | 4.29 ± 0.21 |  |  |
| SPSFPEAPDSGRSAPYSAAFLELP [TBX6] | 3.96 ± 0.3 | 3.93 ± 0.44 |  |  |
| ARVKPPEGYDVVAVYPNAKVELV [PDLIM4] |  |  | 3.52 ± 0.35 | 3.65 ± 0.22 |
| QLQAARNEYLLNLVATNAHLDHYY [FCHSD1] | 2.58 ± 0.44 | 2.55 ± 0.73 |  |  |
| SLNMSRRDSESTRHDSETEDMLWD [PHTF1] | 5.32 ± 0.15 | 5.26 ± 0.2 |  |  |
| PLPPPPPAFKSMEVANFYYEADCL [CEBPB] | 3.9 ± 0.31 | 3.62 ± 0.33 |  |  |
| RPRKLYKHSSTSSRIAKGGVDHTK [BTBD10] | 4.06 ± 0.21 | 4.12 ± 0.23 |  |  |
| SLDISGHMILENCSISKMEEEAGQ [ZER1] | 4.66 ± 0.22 | 4.68 ± 0.22 |  |  |
| CSSSNLAGNDDSFGSLPSPKELSS [DLC1] | 4.37 ± 0.15 | 4.37 ± 0.27 |  |  |
| ETFIVPDSFLVALDMDDGTLSFIV [SPSB1] | 2.66 ± 0.33 | 2.58 ± 0.54 |  |  |
| TLVGCWSDVVGRRSSLLACILLSA [MFSD9] | 2.84 ± 0.38 | 2.71 ± 0.4 |  |  |
